In patent US6956022B2, “Agents for preventing and treating thrombocytopenia” (Chugai Seiyaku Kabushiki Kaisha, priority 1996, dated 2005):

Legend:
platelet count [1] = experiment: Test for daily administration to mouse (peripheral platelet count); format: in vivo; settings: C57B1/6N mice, subcutaneous once a day
Description: Test for Daily Administration to Mouse
Nine-week old male C57B1/6N mice as purchased from Japan Charles River Co., Ltd. were used in the experiment.
Drug solutions to be administered were prepared basically by the same procedure as in Example 1 to give drug concentrations of 5, 20 and 80 μg/mL.
The mice under test were divided into four groups, which were administered subcutaneously with the three drug solutions and a control (citrate buffer) once a day in a volume of 10 mL/kg. […] The administration was initiated at 10 a.m.
On days 5, 7 and 9 after the start of administration, five or six mice were picked up at random from each group of animals and blood samples were withdrawn through the orbital vein. The sampling of blood was timed to occur 24 h of the final administration. Separate blood samples were taken from untreated mice (five in number) to obtain the value for normal mouse. Peripheral corpuscle counts were obtained with an automatic corpuscle counter F-800(TOA MEDICAL ELECTRONICS CO., LTD.).

[2] = system: CFU-GM (precursor cells of granulocytes and macrophages); settings: cited from earlier work
platelet count [3] = experiment: Test for daily administration to rabbit (platelet count); format: in vivo; settings: rabbits, 200 μg/kg subcutaneous daily
Description: Test for Daily Administration to Rabbit
Six 12-15 week old male Japanese albino rabbits JW/CSK were used in the experiment. The animals were individually kept in aluminum rabbit bracket cages Rb-1 (350^w×500^d×350^h mm) in a vavarium in a specific pathogen-free environment under the following conditions: temperature, 24±2° C.; humidity, 50±10%; illumination, light turned on at 5:00 and turned off at 19:00; ventilation, 15 changes/hr. Each animal was supplied with 120 g of a radiation-sterilized feed for rabbits RM (purchased from Funahashi Farm) per day. The animals were also allowed to drink to tap water ad libitum from an automatic water feeder.
Human PTH(1-84) was administered in a volume of 2 mL/vial at a concentration of 200 μg/mL. A solvent was also supplied in a volume of 2 mL/vial. Both the drug and the control were stored at −135° C. until use.
PTH (200 μg/kg) was administered to the rabbits subcutaneously at the back of their neck for 13 consecutive days. The solvent was similarly administered in the same volume as the dose of a rh-PTH solution calculated from their body weight.
Blood samples (0.5 mL) were withdrawn from the rabbits through the lateral auricular vein before the administration and on days 2, 6, 9 and 13 during the administration period. […]

[4] = system: BFU-E (precursor cells of erythrocytes); settings: cited from earlier work
platelet counts = experiment: Test for single-dose administration to mouse (peripheral platelet count); format: in vivo; settings: C57B1/6N mice, single dose 10 μg/kg through the tail vein, 6 and 9 h after the administration
Description: Test for Single-dose Administration to Mouse
Nine-week old male C57B1/6N mice as purchased from Japan Charles River Co. Ltd. were used in the experiment.
Human PTH(1-84) was dissolved in a citrate buffer (pH 5; containing 0.05% of Tween 80) at final concentrations of 1, 0.2 and 0.04 ˜g/mL so as to prepare the drug solutions to be administered.
Each of the thus prepared drug solutions and a control (citrate buffer) was administered to 15 mice through the tail vein in a volume of 10 mL/kg. […] The administration was initiated at 10 a.m.
After 3, 6 and 9 hours of the administration, five mice were picked up at random from each group of animals and blood samples were withdrawn through the orbital vein. At 10 a.m. on the same day, separate blood samples were taken from untreated mice (four in number) to obtain the preadministration value. Peripheral corpuscle counts were obtained with an automatic corpuscle counter F-800 (TOA MEDICAL ELECTRONICS CO., LTD.)

B1: human PTH(1-84) (protein, UniProt P01270 32-115, looked up)
Parathyroid hormone: SVSEIQLMHNLGKHLNSMERVEWLRKKLQDVHNFVALGAPLAPRDAGSQRPRKKEDNVLVESHEKSLGEADKADVNVLTKAKSQ
modifications: Parathyroid hormone
platelet count versus control (platelet count [1]; all treated groups (50, 200 and 800 μg/kg), day 7): significantly higher in platelet count than the control
platelet count versus control (platelet count [1]; groups administered 200 and 800 μg/kg, day 5): tendency to increase
in vitro colony formation by CFU-GM [2]: interfered with
platelet count relative to the initial level (platelet count [3]; day 13): substantially returned to the initial level
platelet count relative to the initial value (platelet count [3]; increase from day 2 until day 6): two to four times as great as the initial value
in vitro colony formation by BFU-E [4]: interfered with
platelet counts versus control (platelet counts): significant increase in platelet counts over the control
